Consider 4 substances from PMC5736413.

One may read the Kd as the free concentration of one partner at which half of the binding sites on the other are occupied at equilibrium, for simple one-to-one binding.

For assay [1], the target named is recombinant mouse C3d (C1010A) (mouse) (UniProt P01027). Description: SPR. For orientation: In SPR one partner is held on a chip, and binding of the other changes the refractive index at the surface.
Assay [2] addresses FH19–20 19–20 (Homo sapiens) (UniProt P08603). In words: SPR. Conditions: cited from earlier work.

Chain of recombinant mouse C3d (C1010A) (mouse) (P01027 1002-1303 C1010A): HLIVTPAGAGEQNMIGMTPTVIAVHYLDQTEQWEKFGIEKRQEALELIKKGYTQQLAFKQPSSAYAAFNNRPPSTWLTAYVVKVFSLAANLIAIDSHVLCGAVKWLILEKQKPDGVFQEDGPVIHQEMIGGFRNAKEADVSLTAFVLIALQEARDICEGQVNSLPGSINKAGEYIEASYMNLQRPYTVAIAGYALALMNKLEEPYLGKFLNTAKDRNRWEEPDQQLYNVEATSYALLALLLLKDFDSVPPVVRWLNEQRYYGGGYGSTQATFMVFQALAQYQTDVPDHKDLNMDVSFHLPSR
Chain of C3d C3d (P01024 1002-1303): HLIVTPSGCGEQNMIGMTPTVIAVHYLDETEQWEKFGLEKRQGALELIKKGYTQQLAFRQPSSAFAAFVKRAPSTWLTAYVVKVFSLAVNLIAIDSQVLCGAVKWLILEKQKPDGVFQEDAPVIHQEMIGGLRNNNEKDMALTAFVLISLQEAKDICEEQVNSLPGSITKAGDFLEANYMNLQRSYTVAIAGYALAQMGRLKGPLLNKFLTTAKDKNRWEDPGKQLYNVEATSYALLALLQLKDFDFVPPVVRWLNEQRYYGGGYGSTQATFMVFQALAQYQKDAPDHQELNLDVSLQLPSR
Chain of FH19–20 19–20 (Homo sapiens) (P08603 1104-1231): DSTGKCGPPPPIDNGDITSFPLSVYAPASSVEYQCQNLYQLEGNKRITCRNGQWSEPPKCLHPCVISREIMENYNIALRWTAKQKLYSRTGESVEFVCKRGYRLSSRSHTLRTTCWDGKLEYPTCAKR

Consider “recombinant mouse Factor H-related protein B (natural protein)”, for which, in assay [1], the Kd was determined as 0.546 µM. As for “recombinant mouse Factor H-related protein C (natural protein)”, in assay [1], the Kd was 1.04 µM. For C3d C3d (from UniProt P01024), the Kd in assay [2] was 0.18 µM. Take “recombinant mouse Factor H-related protein A (prototype, class A clone 3A4/5G4) (natural protein)”: in assay [1], the dissociation constant Kd came out at 0.136 µM.
